{"source": "paper PMC6007404", "about": "(Nucleic Acids Research, 2018)", "key": {"MotA Y134A": {"target": "T1, MotA Y134A (Enterobacteria phage T4, UniProt P22915 1-211, Y134A)", "T1 sequence": "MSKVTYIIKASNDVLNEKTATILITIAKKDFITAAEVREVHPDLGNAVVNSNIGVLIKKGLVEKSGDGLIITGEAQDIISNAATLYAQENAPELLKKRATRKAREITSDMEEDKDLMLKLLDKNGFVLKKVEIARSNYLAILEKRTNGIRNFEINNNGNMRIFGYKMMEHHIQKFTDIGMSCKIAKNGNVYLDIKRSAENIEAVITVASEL", "test": "EMSA; similar to wt; EMSA: 0.01 pmol 32P-DNA, 1.7 pmol MotA, native 12% PAGE in 1x TBE at 4 C, other conditions as in ref 14; SPR: biotin-DNA on neutravidin chip, buffer as in ref 2"}, "MotA E153A [1]": {"target": "T2, MotA E153A (Enterobacteria phage T4, UniProt P22915 1-211, E153A)", "T2 sequence": "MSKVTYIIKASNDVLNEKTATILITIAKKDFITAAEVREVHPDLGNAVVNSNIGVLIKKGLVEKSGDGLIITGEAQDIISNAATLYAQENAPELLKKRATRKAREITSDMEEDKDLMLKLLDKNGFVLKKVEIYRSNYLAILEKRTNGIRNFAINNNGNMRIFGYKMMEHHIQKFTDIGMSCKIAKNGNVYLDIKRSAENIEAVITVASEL", "test": "EMSA; slightly tighter than wt; EMSA: 0.01 pmol 32P-DNA, 1.7 pmol MotA, native 12% PAGE in 1x TBE at 4 C, other conditions as in ref 14; SPR: biotin-DNA on neutravidin chip, buffer as in ref 2"}, "MotA E153A [2]": {"target": "T2, MotA E153A", "test": "EMSA; no difference; data not shown; EMSA: 0.01 pmol 32P-DNA, 1.7 pmol MotA, native 12% PAGE in 1x TBE at 4 C, other conditions as in ref 14; SPR: biotin-DNA on neutravidin chip, buffer as in ref 2"}}}
{"binder": "EMSA 19-mer unmodified (dsDNA) DNA 1: AATTATTTGCTTTAGATTA DNA 2: TAATCTAAAGCAAATAATT", "values": [{"measurement": "binding result", "setting": "MotA Y134A", "value": "binds"}, {"measurement": "binding result", "setting": "MotA E153A [1]", "value": "binds"}]}
{"binder": "EMSA 19-mer GHMe/unmod (dsDNA, beta-D-glucosyl-5-hydroxymethyl-dC at top C10) DNA 1: AATTATTTGCTTTAGATTA DNA 2: TAATCTAAAGCAAATAATT", "values": [{"measurement": "binding result", "setting": "MotA E153A [2]", "value": "binds"}]}
